Assay results as given in US20220389111A1 (SHANGHAI EPIMAB BIOTHERAPEUTICS, published 2022).
Substitutions are numbered along the chain they refer to.

T1: human CD39 protein (recombinant) (human, UniProt P49961 38-478, limits assumed)
T1 sequence: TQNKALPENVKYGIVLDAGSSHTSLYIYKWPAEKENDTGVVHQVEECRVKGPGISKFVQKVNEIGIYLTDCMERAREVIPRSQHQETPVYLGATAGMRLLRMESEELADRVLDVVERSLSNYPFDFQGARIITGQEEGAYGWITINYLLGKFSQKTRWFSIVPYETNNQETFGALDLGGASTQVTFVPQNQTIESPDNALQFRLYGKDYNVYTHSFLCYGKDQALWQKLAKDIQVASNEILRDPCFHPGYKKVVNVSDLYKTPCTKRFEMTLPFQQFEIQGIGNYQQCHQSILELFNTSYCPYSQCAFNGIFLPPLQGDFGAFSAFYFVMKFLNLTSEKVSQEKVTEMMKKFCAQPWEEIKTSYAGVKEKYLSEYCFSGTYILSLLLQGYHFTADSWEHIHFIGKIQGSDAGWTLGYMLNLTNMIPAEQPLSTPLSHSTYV

B1: EM0004-38c (antibody, human IgG1, kappa, L234A L235A, V domains shown)
VH: QVQLQQPGTELVKPGASVKLSCKASGYTFTSFWMHWVKQRPGQGLEWIGNINPRNGATKYNEKFRSKVTLTADKTSSTAYMHLSSLTSEDSAVYYCAREDYDEIYYAMDSWGQGTSVTVSS
VL: QNVLTQSPAIMSASPGEKVTMTCSASSSVIYMYWFQQKPGSSPRVLIYDTSNLASGVPARFSGSGSGTSYSLTISRMEAEDAATYYCQQWSTYPLTFGAGTKLELKR
notes: chimeric mAb638; also called EM04-38c
B2: EM0004-38c1 (antibody, human IgG1, kappa, L234A L235A, name in Kabat numbering, V domains shown)
VH: B1 VH with N55Q
VL: B1 VL
notes: chimeric mAb638 variant; also called EM004-38c1
B3: EM0004-38c2 (antibody, human IgG1, kappa, L234A L235A, name in Kabat numbering, V domains shown)
VH: B1 VH with G56A
VL: B1 VL
notes: chimeric mAb638 variant
B4: HuEM0004-38-6 (antibody, human IgG1, kappa, L234A L235A, V domains shown)
VH: EVQLVQSGAEVKKPGASVKVSCKASGYTFTSFWMHWVRQAPGQGLEWMGNINPRNGATKYNEKFRSRVTMTADTSISTAYMELSRLRSDDTAVYYCAREDYDEIYYAMDSWGQGTTVTVSS
VL: ENVLTQSPATLSLSPGERATLSCSASSSVIYMYWFQQKPGQAPRLLIYDTSNLASGIPARFSGSGSGTDYTLTISSLEPEDFAVYYCQQWSTYPLTFGQGTKLEIKR
B5: HuEM0004-38-13 (antibody, human IgG1, kappa, L234A L235A, V domains shown)
VH: B4 VH with M70L, T74K
VL: B4 VL with A42S, L45V
notes: humanized mAb638, human IgG1/kappa
B6: HuEM0004-38-9 (antibody, human IgG1, kappa, L234A L235A, V domains shown)
VH: B4 VH with M48I, M70L, T74K
VL: B4 VL
B7: HuEM0004-38-15 (antibody, human IgG1, kappa, L234A L235A, V domains shown)
VH: B4 VH with M48I, R67K, M70L, T74K
VL: B4 VL with A42S, L45V
notes: as for B5
B8: HuEM0004-38-18 (antibody, human IgG1, kappa, L234A L235A, V domains shown)
VH: B4 VH with M70L, T74K
VL: B4 VL with A42S, L45V, I57V
notes: as for B5
B9: HuEM0004-38-17 (antibody, human IgG1, kappa, L234A L235A, V domains shown)
VH: B4 VH with T74K
VL: B4 VL with A42S, L45V, I57V
notes: as for B5
B10: HuEM0004-38-7 (antibody, human IgG1, kappa, L234A L235A, V domains shown)
VH: B4 VH with T74K
VL: B4 VL
notes: as for B5
B11: HuEM0004-38-10 (antibody, human IgG1, kappa, L234A L235A, V domains shown)
VH: B4 VH with M48I, R67K, M70L, T74K
VL: B4 VL
notes: as for B5
B12: HuEM0004-38-12 (antibody, human IgG1, kappa, L234A L235A, V domains shown)
VH: B4 VH with T74K
VL: B4 VL with A42S, L45V
notes: as for B5
B13: HuEM0004-38-20 (antibody, human IgG1, kappa, L234A L235A, V domains shown)
VH: B4 VH with M48I, R67K, M70L, T74K
VL: B4 VL with A42S, L45V, I57V
notes: as for B5
B14: HuEM0004-38-16 (antibody, human IgG1, kappa, L234A L235A, V domains shown)
VH: B4 VH
VL: B4 VL with A42S, L45V, I57V
notes: as for B5
B15: HuEM0004-38-11 (antibody, human IgG1, kappa, L234A L235A, V domains shown)
VH: B4 VH
VL: B4 VL with A42S, L45V
notes: as for B5
B16: HuEM0004-38-14 (antibody, human IgG1, kappa, L234A L235A, V domains shown)
VH: B4 VH with M48I, M70L, T74K
VL: B4 VL with A42S, L45V
notes: as for B5
B17: HuEM0004-38-19 (antibody, human IgG1, kappa, L234A L235A, V domains shown)
VH: B4 VH with M48I, M70L, T74K
VL: B4 VL with A42S, L45V, I57V
notes: as for B5
B18: HuEM0004-38-8 (antibody, human IgG1, kappa, L234A L235A, V domains shown)
VH: B4 VH with M70L, T74K
VL: B4 VL
notes: as for B5

Assays:
[1] = target: T1, human CD39 protein (recombinant); assay: cell-based or functional assay
[2] = target: T1, human CD39 protein (recombinant); assay: ELISA on coated human CD39 protein
Protocol: To determine if anti-CD39 mAbs bind to human CD39, ELISA plates were incubated overnight at 4° C. with human CD39 protein or mouse CD39 protein diluted in PBS, pH7.4 buffer at 1 μg/ml. Plates were washed four times in washing buffer (PBS containing 0.05% Tween 20), and blocked for 1 hour at 37° C. with 200 μl per well blocking buffer (1% BSA in PBS containing 0.05% Tween 20). After blocking buffer was removed, hybridoma supernatant or diluted purified Abs were added to the wells at 100 μl per well and incubated at 37° C. for 1 hour. The wells were washed four times with washing buffer, and anti-mouse HRP (for mouse anti-human CD39 Ab characterization) or anti-rat HRP (for rat anti-mouse CD39 Ab characterization) (Sigma) were 1:5000 diluted and added to the wells at 100 μl per well. The plates were incubated for 1 hour at 37° C. and washed four times in washing buffer. 100 μl of tetramethylbenzidine (TMB) chromogenic solution were added per well. Following color development, the reaction was stopped with 1N HCl, and absorbance at 450 nm was measured. The data were proceeded by GraphPad software.
Humanized antibodies HuEM04-38-6 to HuEM0004-38-20 and chimeric antibodies EM04-38c, EM004-38c1, and EM0004-38c2 were tested for CD39 specific binding by ELISA as described in Example 1.2 and for inhibition of protein-based ATPase activity as described in Example 1.3.

Binder	ATPase inhibition IC50 [1]	ATPase inhibition, inhibition % [1]	EC50 [2]
B1	0.0242 µM	107%	0.014 mg/L
B2	0.0156 µM	102%	0.023 mg/L
B3	0.0143 µM	103%	0.016 mg/L
B4	0.14 µM	64.1%	
B5	0.0362 µM	98.7%	0.023 mg/L
B6	0.0796 µM	61.6%	
B7	0.0409 µM	97.6%	0.031 mg/L
B8	0.0189 µM	98.5%	0.019 mg/L
B9	0.0204 µM	103%	0.044 mg/L
B10	0.0835 µM	71.4%	0.149 mg/L
B11	0.0832 µM	71.5%	0.175 mg/L
B12	0.0469 µM	103%	0.023 mg/L
B13	0.0273 µM	100%	0.031 mg/L
B14	0.041 µM	102%	0.027 mg/L
B15	0.0653 µM	99.6%	0.021 mg/L
B16	0.0369 µM	98.9%	0.021 mg/L
B17	0.0332 µM	99.2%	0.02 mg/L
B18	0.0818 µM	67.9%	0.097 mg/L
